Results as given in article PMC8279337.

Biological target: Adipose Triglyceride Lipase (UniProt Q96AD5)
Sequence of UniProt Q96AD5 (Q96AD5 whole entry): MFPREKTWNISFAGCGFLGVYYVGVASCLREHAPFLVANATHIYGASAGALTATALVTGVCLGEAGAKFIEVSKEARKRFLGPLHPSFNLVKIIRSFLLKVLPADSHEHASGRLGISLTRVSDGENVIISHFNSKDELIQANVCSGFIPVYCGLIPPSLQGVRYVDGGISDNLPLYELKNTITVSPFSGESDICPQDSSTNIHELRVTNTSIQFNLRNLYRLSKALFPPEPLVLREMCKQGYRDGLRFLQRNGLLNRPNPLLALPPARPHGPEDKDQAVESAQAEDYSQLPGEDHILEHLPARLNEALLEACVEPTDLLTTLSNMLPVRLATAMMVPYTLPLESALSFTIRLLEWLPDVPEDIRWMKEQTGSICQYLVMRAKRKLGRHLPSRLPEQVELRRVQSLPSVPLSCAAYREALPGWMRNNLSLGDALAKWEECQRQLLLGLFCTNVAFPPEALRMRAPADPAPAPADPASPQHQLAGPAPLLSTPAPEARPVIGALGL

MBP-G0S2 (full length G0S2 with N-terminal His6 and maltose-binding protein) (from UniProt Q61585 1-103) (natural protein)
triglyceride hydrolase activity of the ATGL lysate on [9,10-3H]-triolein (DPM), 2 and 10 ug MBP-G0S2, compared with HisMBP; DPM smaller at 10 ug than at 2 ug: 60%
